From publication PMC9922815

Biological target: rabbit skeletal muscle F-actin (rabbit) (UniProt P68135)
Assay: co-sedimentation; high-speed F-actin cosedimentation: 5 uM UtrN-R3 incubated 30 min with 0-160 uM phalloidin-stabilized F-actin, 100,000g for 20 min; F-buffer (4.5 mM Tris-HCl pH 8.0, 0.18 mM CaCl2, 50 mM KCl, 2 mM MgCl2, 1.2 mM ATP, 0.5 mM DTT); bound and free by densitometry of Coomassie gels, hyperbola fit

Substance	Kd [µM]
UtrN-R3 WT, bacterially derived (mouse utrophin fragment encoding the N terminus through spectrin repeat 3, not phosphorylated) (from UniProt E9Q6R7 1-3430) (domain or fragment)	105
UtrN-R3 WT, insect cell-derived (mouse utrophin fragment encoding the N terminus through spectrin repeat 3, phosphorylated) (from UniProt E9Q6R7 1-3430) (domain or fragment)	84.5
